IntAct's records for PubMed 31515488

B1: "Guanine nucleotide-binding protein G(T) subunit gamma-T1" (Homo sapiens), P63211 (parent)
chain: MPVINIEDLTEKDKLKMEVDQLKKEVTLERMLVSKCCEEVRDYVEERSGEDPLVKGIPEDKNPFKELKGGCVIS
partner: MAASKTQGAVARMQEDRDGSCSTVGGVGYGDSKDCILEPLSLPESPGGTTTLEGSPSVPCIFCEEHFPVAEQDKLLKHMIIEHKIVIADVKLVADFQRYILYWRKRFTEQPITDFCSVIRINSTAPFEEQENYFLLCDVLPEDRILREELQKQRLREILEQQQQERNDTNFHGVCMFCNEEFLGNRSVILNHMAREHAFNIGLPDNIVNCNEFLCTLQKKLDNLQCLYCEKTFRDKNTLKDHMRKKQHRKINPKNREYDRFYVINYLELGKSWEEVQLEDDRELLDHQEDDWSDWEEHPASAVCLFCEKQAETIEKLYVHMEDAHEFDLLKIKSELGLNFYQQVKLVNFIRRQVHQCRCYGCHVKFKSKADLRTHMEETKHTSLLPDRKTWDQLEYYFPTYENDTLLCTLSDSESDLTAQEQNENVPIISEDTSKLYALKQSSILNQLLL
B2: Zinc finger protein 473 (Homo sapiens), Q8WTR7 (parent)
chain: MAEEFVTLKDVGMDFTLGDWEQLGLEQGDTFWDTALDNCQDLFLLDPPRPNLTSHPDGSEDLEPLAGGSPEATSPDVTETKNSPLMEDFFEEGFSQEIIEMLSKDGFWNSNFGEACIEDTWLDSLLGDPESLLRSDIATNGESPTECKSHELKRGLSPVSTVSTGEDSMVHNVSEKTLTPAKSKEYRGEFFSYSDHSQQDSVQEGEKPYQCSECGKSFSGSYRLTQHWITHTREKPTVHQECEQGFDRNASLSVYPKTHTGYKFYVCNEYGTTFSQSTYLWHQKTHTGEKPCKSQDSDHPPSHDTQPGEHQKTHTDSKSYNCNECGKAFTRIFHLTRHQKIHTRKRYECSKCQATFNLRKHLIQHQKTHAAKTTSECQECGKIFRHSSLLIEHQALHAGEEPYKCNERGKSFRHNSTLKIHQRVHSGEKPYKCSECGKAFHRHTHLNEHRRIHTGYRPHKCQECVRSFSRPSHLMRHQAIHTAEKPYSCAECKETFSDNNRLVQHQKMHTVKTPYECQECGERFICGSTLKCHESVHAREKQGFFVSGKILDQNPEQKEKCFKCNKCEKTFSCSKYLTQHERIHTRGVKPFECDQCGKAFGQSTRLIHHQRIHSRVRLYKWGEQGKAISSASLIKLQSFHTKEHPFKCNECGKTFSHSAHLSKHQLIHAGENPFKCSKCDRVFTQRNYLVQHERTHARKKPLVCNECGKTFRQSSCLSKHQRIHSGEKPYVCDYCGKAFGLSAELVRHQRIHTGEKPYVCQECGKAFTQSSCLSIHRRVHTGEKPYRCGECGKAFAQKANLTQHQRIHTGEKPYSCNVCGKAFVLSAHLNQHLRVHTQETLYQCQRCQKAFRCHSSLSRHQRVHNKQQYCL
partner: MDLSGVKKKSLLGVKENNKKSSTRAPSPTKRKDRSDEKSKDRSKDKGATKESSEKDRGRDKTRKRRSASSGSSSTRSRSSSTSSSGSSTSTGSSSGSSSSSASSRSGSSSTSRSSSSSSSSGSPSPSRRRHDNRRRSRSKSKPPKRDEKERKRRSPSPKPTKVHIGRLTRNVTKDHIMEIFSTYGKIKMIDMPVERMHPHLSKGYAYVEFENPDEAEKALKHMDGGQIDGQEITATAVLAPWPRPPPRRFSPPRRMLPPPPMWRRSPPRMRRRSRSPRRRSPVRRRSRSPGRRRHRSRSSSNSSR
B3: Cyclin-D1-binding protein 1 (Homo sapiens), O95273 (parent)
chain: MASATAPAAAVPTLASPLEQLRHLAEELRLLLPRVRVGEAQETTEEFNREMFWRRLNEAAVTVSREATTLTIVFSQLPLPSPQETQKFCEQVHAAIKAFIAVYYLLPKDQGITLRKLVRGATLDIVDGMAQLMEVLSVTPTQSPENNDLISYNSVWVACQQMPQIPRDNKAAALLMLTKNVDFVKDAHEEMEQAVEECDPYSGLLNDTEENNSDNHNHEDDVLGFPSNQDLYWSEDDQELIIPCLALVRASKACLKKIRMLVAENGKKDQVAQLDDIVDISDEISPSVDDLALSIYPPMCHLTVRINSAKLVSVLKKALEITKASHVTPQPEDSWIPLLINAIDHCMNRIKELTQSELEL
partner: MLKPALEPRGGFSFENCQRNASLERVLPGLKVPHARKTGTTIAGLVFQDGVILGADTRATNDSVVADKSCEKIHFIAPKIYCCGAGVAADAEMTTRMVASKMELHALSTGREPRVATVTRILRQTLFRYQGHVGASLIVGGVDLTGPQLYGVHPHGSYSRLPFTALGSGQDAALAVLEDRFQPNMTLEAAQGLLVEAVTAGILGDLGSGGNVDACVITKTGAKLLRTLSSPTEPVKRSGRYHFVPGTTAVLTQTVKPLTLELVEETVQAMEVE
B4: DCC-interacting protein 13-alpha (Homo sapiens), Q9UKG1 (parent)
chain: MPGIDKLPIEETLEDSPQTRSLLGVFEEDATAISNYMNQLYQAMHRIYDAQNELSAATHLTSKLLKEYEKQRFPLGGDDEVMSSTLQQFSKVIDELSSCHAVLSTQLADAMMFPITQFKERDLKEILTLKEVFQIASNDHDAAINRYSRLSKKRENDKVKYEVTEDVYTSRKKQHQTMMHYFCALNTLQYKKKIALLEPLLGYMQAQISFFKMGSENLNEQLEEFLANIGTSVQNVRREMDSDIETMQQTIEDLEVASDPLYVPDPDPTKFPVNRNLTRKAGYLNARNKTGLVSSTWDRQFYFTQGGNLMSQARGDVAGGLAMDIDNCSVMAVDCEDRRYCFQITSFDGKKSSILQAESKKDHEEWICTINNISKQIYLSENPEETAARVNQSALEAVTPSPSFQQRHESLRPAAGQSRPPTARTSSSGSLGSESTNLAALSLDSLVAPDTPIQFDIISPVCEDQPGQAKAFGQGGRRTNPFGESGGSTKSETEDSILHQLFIVRFLGSMEVKSDDHPDVVYETMRQILAARAIHNIFRMTESHLLVTCDCLKLIDPQTQVTRLTFPLPCVVLYATHQENKRLFGFVLRTSSGRSESNLSSVCYIFESNNEGEKICDSVGLAKQIALHAELDRRASEKQKEIERVKEKQQKELNKQKQIEKDLEEQSRLIAASSRPNQASSEGQFVVLSSSQSEESDLGEGGKKRESEA
partner: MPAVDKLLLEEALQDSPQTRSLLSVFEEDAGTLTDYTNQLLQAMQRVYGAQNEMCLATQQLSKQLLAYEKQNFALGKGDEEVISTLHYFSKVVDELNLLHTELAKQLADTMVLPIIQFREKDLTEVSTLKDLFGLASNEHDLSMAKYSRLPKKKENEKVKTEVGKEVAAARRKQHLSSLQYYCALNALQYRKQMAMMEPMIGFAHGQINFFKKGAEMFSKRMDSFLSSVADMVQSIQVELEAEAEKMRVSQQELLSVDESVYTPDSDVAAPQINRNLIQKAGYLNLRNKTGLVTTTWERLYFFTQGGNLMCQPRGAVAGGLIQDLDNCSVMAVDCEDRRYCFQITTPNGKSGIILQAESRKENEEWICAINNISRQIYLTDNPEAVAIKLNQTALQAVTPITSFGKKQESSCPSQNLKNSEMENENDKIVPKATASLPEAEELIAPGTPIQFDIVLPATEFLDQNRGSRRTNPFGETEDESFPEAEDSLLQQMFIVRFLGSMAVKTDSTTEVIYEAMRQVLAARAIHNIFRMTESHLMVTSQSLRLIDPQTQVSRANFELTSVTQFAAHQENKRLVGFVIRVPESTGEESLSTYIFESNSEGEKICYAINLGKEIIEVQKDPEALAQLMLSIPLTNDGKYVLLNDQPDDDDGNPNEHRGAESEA
B5: Keratin-associated protein 12-2 (Homo sapiens), P59991 (parent)
chain: MCHTSCSSGCQPACCAPSPCQPACCVPSSCQASCCVPVGCQSSVCVPVSFKPAVCLPVSCQSSVCVPMSFKSAVCVPVSCQSSVCVPVSCRPIVCAAPSCQSSLCVPVSCRPVVYAAPSCQSSGCCQPSCTSVLCRPISYSISSCC
partner: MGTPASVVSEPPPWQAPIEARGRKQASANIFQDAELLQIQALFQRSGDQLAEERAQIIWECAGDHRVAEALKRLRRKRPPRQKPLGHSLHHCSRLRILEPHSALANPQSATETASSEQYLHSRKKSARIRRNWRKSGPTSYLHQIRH

Variants of: B1
Details: with zn277_human ZNF277, Q9NRM2

effect of a mutation on the interaction	Variant
with no effect	MPVINIEDLTEKDKLKMEVDQLKKEVTLERMLVSKCCEEVRDYVEERSGKDPLVKGIPEDKNPFKELKGGCVIS

Variants of: B2
Details: with rnps1_human RNPS1, Q15287

effect of a mutation on the interaction	Variant
with no effect	R223C
with no effect	S662A
disrupting interaction strength	R605Q
with no effect	S59G
with no effect	T164M
with no effect	T654I
with no effect	E309G
with no effect	N82S
with no effect	S535N
with no effect	Y456H

Variants of: B3
Details: with psb10_human PSMB10, P40306

effect of a mutation on the interaction	Variant
disrupting interaction strength	MASATAPAAAVPTLASPLEQLRHLAEELRLLLPRVRVGEAQETTEEFNREMFWRRLNEAAVTVSREATTLTIVFSQLPLPSPQETQKFCEQVHAAIKAFIAVYYLLPKDQGITLRKLVRGATLDIVDGMAQLMEVLSVTPTQSPENNDLISYNSVWVACQQMPQIPRDNKAAALLMLTKNVDFVKDAHEEMEQAVEECDPYSGLLNDTEENNSDNHNHEDDVLGFPSNQDLYWSEDDQELIIPCLALVRASKACLKKIRMLVAENGKKDQVAQLDDTVDISDEISPSVDDLALSIYPPMCHLTVRINSAKLVSVLKKALEITKASHVTPQPEDSWIPLLINAIDHCMNRIKELTQSELEL [I277T]

Variants of: B4
Details: with dp13b_human APPL2, Q8NEU8

effect of a mutation on the interaction	Variant
with no effect	E643Q
with no effect	E67G

Variants of: B5
Details: with avpi1_human AVPI1, Q5T686

effect of a mutation on the interaction	Variant
with no effect	MCHTSCSSGCQPACCTPSPCQPACCVPSSCQASCCVPVGCQSSVCVPVSFKPAVCLPVSCQSSVCVPMSFKSAVCVPVSCQSSVCVPVSCRPIVCAAPSCQSSLCVPVSCRPVVYAAPSCQSSGCCQPSCTSVLCRPISYSISSCC
